The target of assay [1] is pMHC-E6, HLA-A*02:01-[…] monomer (refolded, soluble) (human; human papillomavirus (HPV)).
The target in assay [2] is T1, E7 peptide (…) in complex with HLA-A*02:01 on T2 cells (human; human papillomavirus (HPV)).
T1 construct: whole, on cells
Nature of the assay: FACS on 293E7 cells, APC-anti-Flag; nanobody concentration not given.

B1: single-domain antibody F5 (camel VHH nanobody) (VHH)
VHH: EVQLVESGGGSVQAGGSLRLSCAASGFTFSNNRMGWVRQAPGKGLEWVSDINSSGGVTEYADSVKGRFTISRDNAKNTLYLQLNSLKIEDTAIYYCVYYSYLMRLRPGQGTQVTVSS
notes: also called VHH F5; nanobody F5
For B1, the Kd – broadly, the concentration at which binding is half-saturated – in assay [1] worked out at 1.5 µM. For the same molecule, the binding result in assay [2] is recorded as “no binding”.

B2: single-domain antibody G9 (camel VHH nanobody) (VHH)
VHH: EVQLVESGGGLVQPGGSLRLSCVASGFTFSNNRMGWVRQAPGKGLEWVSDINSSGGVTEYADSVKGRFTISRDNAKNTLYLQLNSLKIEDTAIYYCVYYSYLMRLRPGQGTQVTVSS
notes: also called nanobody G9
In the case of B2, in assay [2], the binding result was “no binding”.

(Values after patent publication US20260070960A1 (US Dept. of Health and Human Services, published 2026).)
